Data as given in patent publication US20220089678A1.

Molecular target: human BCMA on cells (human) (UniProt Q02223)
Test: cell-based or functional assay

Chain of human BCMA on cells (human) (Q02223 whole entry): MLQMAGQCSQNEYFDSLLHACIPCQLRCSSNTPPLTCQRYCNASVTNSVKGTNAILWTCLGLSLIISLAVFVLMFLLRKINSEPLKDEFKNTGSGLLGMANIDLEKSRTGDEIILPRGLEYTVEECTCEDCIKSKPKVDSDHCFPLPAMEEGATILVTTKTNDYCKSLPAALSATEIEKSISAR

B1: CAR with OX40-CD3z cytoplasmic domain of SEQ ID: 105 (protein, part only; not given: anti-BCMA scFv, hinge, transmembrane, part only)
chain, part: RRDQRLPPDAHKPPGGGSFRTPIQEEQADAHSTLAKIRVKFSRSADAPAYQQGQNQLYNELNLGRREEYDVLDKRRGRDPEMGGKPRRKNPQEGLYNELQKDKMAEAYSEIGMKGERRRGKGHDGLYQGLSTATKDTYDALHMQALPPR
Killing (% killed), Effector:target ratio of 1:10: 46%
